{"source": "patent US20260098102A1", "about": "(NATIONAL UNIVERSITY CORPORATION KOBE UNIVERSITY, published 2026)", "binders": {"B1": {"name": "KWAR23 (antibody, human IgG4 S228P, kappa, V domains shown)", "VH": "EVQLQQSGAELVKPGASVKLSCTASGFNIKDYYIHWVQQRTEQGLEWIGRIDPEDGETKYAPKFQDKATITADTSSNTAYLHLSSLTSEDTAVYYCARWGAYWGQGTLVTVSA", "VL": "QIVLTQSPAIMSASPGEKVTLTCSASSSVSSSYLYWYQQKPGSSPKLWIYSTSNLASGVPARFSGSGSGTSYSLTISSMEAEDAASYFCHQWSSYPRTFGAGTKLELKR", "notes": "IgG4Pro heavy chain; also called KWAR23_hG4Pro / KWAR23_hK"}}, "key": {"SIRPA_V1_IgV": {"biological_target": "T1, SIRPA_V1_IgV (human, UniProt P78324 31-149)", "T1 construct": "Secreted recombinant protein from FreeStyle 293F cells", "T1 sequence (P78324 other isoform, or with tags, fused parts or gaps limits assumed)": "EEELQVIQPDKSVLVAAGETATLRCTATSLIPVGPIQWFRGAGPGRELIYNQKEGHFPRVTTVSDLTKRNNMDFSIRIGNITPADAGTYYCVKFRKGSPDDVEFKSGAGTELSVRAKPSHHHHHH", "test": "SPR Biacore T200, antibody captured on anti-human IgG (Fc), SIRPA_V1_IgV as analyte (0.25 to 16 nM), 1:1 model", "description": "(§1) The dissociation constants were measured by a capture method comprising capturing each antibody as a ligand to an Anti-Human IgG (Fc) antibody immobilized using Human Antibody Capture Kit (GE Healthcare Bioscience Corp.) and measuring an antigen as an analyte, using Biacore T200 (GE Healthcare Bioscience Corp.). HBS-EP+ (GE Healthcare Bioscience Corp.) was used as a running buffer, and CM5 (GE Healthcare Bioscience Corp.) was used as a sensor chip. Onto the chip, 2 μg/mL of various antibodies were added at 10 μL/min for 30 seconds, then a serially diluted solution (0.25 to 16 nM) of the human SIRPA protein as an antigen was added at a flow rate of 30 μL/min for 120 seconds, and subsequently the dissociation phase for 600 seconds was monitored. As a regenerant, 3 M magnesium chloride (GE Healthcare Bioscience Corp.) was added at a flow rate of 20 μL/min for 30 seconds. For data analysis, a binding rate constant (ka), a dissociation rate constant (kd), and a dissociation constant (KD; KD=kd/ka) were calculated using a 1:1 binding model."}, "SIRPA_V2_IgV": {"biological_target": "T2, SIRPA_V2_IgV (human)", "T2 construct": "Secreted recombinant protein; The crystal model held residues 33 to 143 of human SIRPA Variant 2", "T2 sequence (chain, as listed by the source limits assumed)": "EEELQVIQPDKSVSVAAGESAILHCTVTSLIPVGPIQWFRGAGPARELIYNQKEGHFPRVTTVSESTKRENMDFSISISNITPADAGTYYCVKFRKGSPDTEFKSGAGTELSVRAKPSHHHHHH", "test": "SPR Biacore T200, antibody captured on anti-human IgG (Fc), SIRPA_V2_IgV as analyte (0.25 to 16 nM), 1:1 model", "description": "as §1"}, "human SIRPA_V1 protein": {"biological_target": "T3, human SIRPA_V1 protein (human, UniProt P78324 31-504)", "T3 construct": "Expressed on 293α cells from pcDNA3.2 V5-DEST or pFLAG V5-DEST (FLAG-tagged) vectors; also called human SIRPA Variant 1; hSIRPA V1", "T3 sequence (P78324 31-504 limits assumed)": "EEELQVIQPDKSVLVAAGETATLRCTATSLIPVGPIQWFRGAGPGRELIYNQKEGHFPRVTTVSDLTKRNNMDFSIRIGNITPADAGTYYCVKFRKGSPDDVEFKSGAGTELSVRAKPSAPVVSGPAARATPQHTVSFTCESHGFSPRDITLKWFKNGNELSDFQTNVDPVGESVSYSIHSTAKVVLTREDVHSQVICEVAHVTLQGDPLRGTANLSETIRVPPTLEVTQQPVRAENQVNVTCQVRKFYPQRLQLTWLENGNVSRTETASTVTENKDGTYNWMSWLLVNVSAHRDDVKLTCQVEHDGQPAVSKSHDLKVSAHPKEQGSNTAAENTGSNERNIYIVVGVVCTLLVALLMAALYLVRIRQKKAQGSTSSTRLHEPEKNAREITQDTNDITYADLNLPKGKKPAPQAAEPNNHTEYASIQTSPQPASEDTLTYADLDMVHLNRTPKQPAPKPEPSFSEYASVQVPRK", "test": "blocking cell-based ELISA: peroxidase-labeled CD47-Fc (1 µg/mL) on 293α cells expressing SIRPA_V1", "description": "(§2) After the culture supernatant of the human SIRPA_V1 or V2 expression vector-introduced 293 cells prepared in Example 9)-1 was removed, 50 μL per well of various anti-SIRPA antibodies or various control Human IgG diluted with 5% FBS-containing PBS to a final concentration of 0 to 10,000 ng/ml was added to each of pcDNA3.2 V5-DEST-SIRPA_V1 or V2-introduced 293α cells, immediately followed by addition of 50 µL per well of peroxidase-labeled CD47-Fc prepared with 5% FBS-containing PBS at 1 μg/mL, and the mixture was allowed to stand at 4° C. for one hour. Thereafter, the SIRPA-CD47 binding inhibitory activity was evaluated in the same manner as in 1)-6-3."}, "human SIRPA_V2 protein": {"biological_target": "T4, human SIRPA_V2 protein (human, UniProt P78324 31-504)", "T4 construct": "Expressed on 293α cells from pcDNA3.2 V5-DEST or pFLAG V5-DEST (FLAG-tagged) vectors; also called human SIRPA Variant 2; ECD variant (full-length, amino acids 1 to 504)", "T4 sequence (P78324 other isoform, or with tags, fused parts or gaps limits assumed)": "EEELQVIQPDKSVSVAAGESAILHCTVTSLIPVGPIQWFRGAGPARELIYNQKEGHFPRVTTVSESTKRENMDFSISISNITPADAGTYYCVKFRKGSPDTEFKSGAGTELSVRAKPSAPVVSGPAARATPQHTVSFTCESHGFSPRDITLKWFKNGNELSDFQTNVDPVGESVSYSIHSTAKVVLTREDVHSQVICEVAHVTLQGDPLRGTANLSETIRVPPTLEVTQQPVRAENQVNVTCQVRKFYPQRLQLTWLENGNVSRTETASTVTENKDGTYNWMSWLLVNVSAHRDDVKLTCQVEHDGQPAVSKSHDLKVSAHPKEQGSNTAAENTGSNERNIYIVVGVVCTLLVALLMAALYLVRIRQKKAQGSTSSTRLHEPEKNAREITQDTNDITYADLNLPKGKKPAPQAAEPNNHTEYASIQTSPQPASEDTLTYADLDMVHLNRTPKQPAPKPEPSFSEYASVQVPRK", "test": "blocking cell-based ELISA: peroxidase-labeled CD47-Fc (1 µg/mL) on 293α cells expressing SIRPA_V2", "description": "as §2"}, "human SIRPB": {"biological_target": "T5, human SIRPB (human, UniProt O00241 30-398)", "T5 construct": "whole, on cells; FLAG-tagged (pFLAG V5-DEST), on CHO-K1 cells; also called SIRPβ1; signal regulatory protein β1", "T5 sequence (O00241 30-398)": "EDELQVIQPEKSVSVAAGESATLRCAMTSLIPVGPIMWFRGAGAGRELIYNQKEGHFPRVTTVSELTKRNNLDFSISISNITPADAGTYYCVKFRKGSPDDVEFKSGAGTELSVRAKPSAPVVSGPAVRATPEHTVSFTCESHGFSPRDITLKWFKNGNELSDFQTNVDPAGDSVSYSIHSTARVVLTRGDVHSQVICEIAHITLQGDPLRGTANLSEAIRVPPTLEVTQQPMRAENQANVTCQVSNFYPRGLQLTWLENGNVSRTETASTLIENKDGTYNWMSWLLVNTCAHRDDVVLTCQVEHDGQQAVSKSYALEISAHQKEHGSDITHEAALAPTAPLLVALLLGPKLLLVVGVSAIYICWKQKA", "test": "flow cytometry on CHO-K1 cells expressing FLAG-tagged human SIRPB; PE anti-human IgG; MFI standardized to secondary antibody alone", "description": "SIRPβ1 (signal regulatory protein β1: the amino acid sequence thereof is published as RefSeq accession number NP_006056) and SIRPγ (signal regulatory protein γ: the amino acid sequence thereof is published as RefSeq accession number NP_061026) are molecules belonging to the SIRPA family. In the present invention, “SIRPα” may be referred to as “SIRPA,” “SIRPβ1” may be referred to as […] and “SIRPγ” may be referred to as “SIRPG.” CHO-K1 cells were prepared in a 10% FBS-containing Ham's F-12K medium at 3.3×10⁵ cells/mL and cultured overnight at 37° C. under a 5% CO₂ condition. pFLAG V5-DEST-human SIRPβ, pFLAG V5-DEST-human SIRPG, or pFLAG V5-DEST was introduced into the cells using Lipofectamine LTX (Invitrogen), and cells were cultured in a 10% FBS-containing Ham's F-12K medium at 37° C. under a 5% CO₂ condition for 24 hours. The obtained introduced cells were collected and seeded on a 96-well plate. After the culture supernatant was removed, 100 μL per well of various anti-human SIRPA antibodies or various control human IgG was added to each of various gene introduced cells at a final concentration of 0 to 10,000 ng/mL, and the mixture was allowed to stand at 4° C. for 25 minutes. After the mixture was centrifuged, the supernatant was removed, and cells were washed twice with 5% FBS-containing PBS. After the mixture was centrifuged, the supernatant was removed, 50 μL per well of a 1/400 diluted solution of PE Mouse anti-Human IgG antibody (BioLegend) was added, and the mixture was allowed to stand at 4° C. for 25 minutes. After the mixture was centrifuged, the supernatant was removed, and cells were washed twice with 5% FBS-containing PBS.\n(§3) After the mixture was centrifuged, and the supernatant was removed, cells were suspended in 100 μL per well of 1× BD Stabilizing Fixative (Becton Dickinson), and the cell count was measured by flow cytometry (FACS Canto II: Becton Dickinson). For data analysis, FlowJo (TreeStar) was used. Cells were characterized by detecting forward scattered (FSC) light and side-scattered (SSC) light, and then the mean fluorescence intensity of PE was calculated. Binding of various antibodies to the family molecules was calculated by standardizing the fluorescence intensity using the mean fluorescence intensity of a sample in which the secondary antibody alone was allowed to react."}, "human SIRPG": {"biological_target": "T6, human SIRPG (human, UniProt Q9P1W8 29-387)", "T6 construct": "whole, on cells; FLAG-tagged (pFLAG V5-DEST), on CHO-K1 cells; also called SIRPγ; signal regulatory protein γ", "T6 sequence (Q9P1W8 29-387)": "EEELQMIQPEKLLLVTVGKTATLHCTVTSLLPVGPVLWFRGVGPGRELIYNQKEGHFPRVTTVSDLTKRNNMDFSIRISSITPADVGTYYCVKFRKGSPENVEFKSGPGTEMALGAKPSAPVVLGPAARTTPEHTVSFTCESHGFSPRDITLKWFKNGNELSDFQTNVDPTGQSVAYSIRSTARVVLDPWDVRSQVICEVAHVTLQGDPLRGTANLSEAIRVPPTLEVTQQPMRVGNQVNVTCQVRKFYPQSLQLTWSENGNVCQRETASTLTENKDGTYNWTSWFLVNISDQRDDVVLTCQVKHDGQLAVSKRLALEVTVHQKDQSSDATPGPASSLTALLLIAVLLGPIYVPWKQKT", "test": "flow cytometry on CHO-K1 cells expressing FLAG-tagged human SIRPG; PE anti-human IgG; MFI standardized to secondary antibody alone", "description": "SIRPβ1 (signal regulatory protein β1: the amino acid sequence thereof is published as RefSeq accession number NP_006056) and SIRPγ (signal regulatory protein γ: the amino acid sequence thereof is published as RefSeq accession number NP_061026) are molecules belonging to the SIRPA family. In the present invention, “SIRPα” may be referred to as “SIRPA,” “SIRPβ1” may be referred to as […] and “SIRPγ” may be referred to as “SIRPG.” CHO-K1 cells were prepared in a 10% FBS-containing Ham's F-12K medium at 3.3×10⁵ cells/mL and cultured overnight at 37° C. under a 5% CO₂ condition. pFLAG V5-DEST-human SIRPβ, pFLAG V5-DEST-human SIRPG, or pFLAG V5-DEST was introduced into the cells using Lipofectamine LTX (Invitrogen), and cells were cultured in a 10% FBS-containing Ham's F-12K medium at 37° C. under a 5% CO₂ condition for 24 hours. The obtained introduced cells were collected and seeded on a 96-well plate. After the culture supernatant was removed, 100 μL per well of various anti-human SIRPA antibodies or various control human IgG was added to each of various gene introduced cells at a final concentration of 0 to 10,000 ng/mL, and the mixture was allowed to stand at 4° C. for 25 minutes. After the mixture was centrifuged, the supernatant was removed, and cells were washed twice with 5% FBS-containing PBS. […]\nas §3, with “For data analysis, FlowJo (TreeStar) was used.” left out"}}, "data": [{"binder": "B1", "values": [{"measurement": "Kd", "setting": "SIRPA_V1_IgV", "value": 2.55, "unit": "nM"}, {"measurement": "Kd", "setting": "SIRPA_V2_IgV", "value": 4.46, "unit": "nM"}, {"measurement": "IC50", "setting": "human SIRPA_V1 protein", "value": 2.24, "unit": "µg/mL"}, {"measurement": "IC50", "setting": "human SIRPA_V2 protein", "value": 2.19, "unit": "µg/mL"}, {"measurement": "binding result", "setting": "human SIRPB", "value": "binds"}, {"measurement": "EC50 (read off the curve)", "setting": "human SIRPG", "value": "~0.03", "unit": "µg/mL"}]}]}
